Data reported in the nanobody polyreactivity screen of Harvey et al. (2022).

Experiment: yeast display, Sf9 membrane polyspecificity reagent, FACS + sequencing; frameworks hold sequencing errors
How it was run: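 After 36–48 hours of galactose induction, yeast (Saccharomyces cerevisiae BJ5465) displaying a synthetic nanobody library were stained at 4 °C for 1 hour with 10% biotinylated, detergent-solubilized Sf9 membrane reagent. Streptavidin microbeads enriched the stained cells before FACS sorting into low and high (top ~1%) gates on anti-HA and streptavidin fluorescence. Each clone's polyreactivity label reflects its gate of origin.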

## QVQLVESGGGLVQAGGSLRLSCAASGFTVYSYPLGWYRQAPGKERELVAAITRSGGITYYADSVKGRFTISRDNAKNTVYLQMNSLKPEDTAVYYCNAYRGGLSSEHYYWGQGTQVTVSS
  polyreactivity (PSR sort gate): high polyreactivity

## QVQLVESGGGLVQAGGSLRLSCAASGFTYFQYAMGWYRQAPGKERELVAAITSGVSTNYADSVKGRFTISRDNAKNTVYLQMNSLKPEDTAVYYCAADPRYLQSWRGEFAGEYWGQGTQVTVSS
  polyreactivity (PSR sort gate): low polyreactivity

## QVQLVESGGGLVQAGGSLRLSCAASGFTYFYAMGWYRQAPGKERELVATITINGGRTYYADSVKGRFTISRDNAKNTVYLQMNSLKPEDTAVYYCAAKSWYSYGDWGYYSWGQGTQVTVSS
  polyreactivity (PSR sort gate): high polyreactivity

## QVQLVESGGGLVQAGGSLRLSCAASGFTYRTNAMGWYRQAPGKERELVAAISTGARTYYADSVKGRFTISRDNAKNTVYLQMNSLKPEDTAVYYCNKVLRRFLSRYDYWGQGTQVTVSS
  polyreactivity (PSR sort gate): high polyreactivity

## QVQLVESGGGLVQAGGSLRLSCAASGFTYRTYAMGWYRQAPGKERELVAAITVSGGTYYADSVKGRFTISRDNAKNTVYFQMNSLKPEDTAVYYCTAKRFRTGFDYWGQGTQVTVSS
  polyreactivity (PSR sort gate): low polyreactivity

## QVQLVESGGGLVQAGGSLRLSCAASGFTYYHNVMGWYRQAPGKERELVAAISSGGDTTYYADSVKGRFTISRDNAKNTVSLQKNSLKPEDTAVYYCNADRQIGRYYHFDYWGQGTQVSVSS
  polyreactivity (PSR sort gate): high polyreactivity

## QVQLVESGGGLVQAGGSLRLSCAASGFVYYVMGWYRQAPGKERELVAAISKGGGRTYYADSVKGRFTISRDNAKNTVYLQMNSLKPEDTAVYYCNADGGLPKYDYWGQGTQVTVSS
  polyreactivity (PSR sort gate): high polyreactivity

## QVQLVESGGGLVQAGGSLRLSCAASGFYNTMGWYRQAPGKERELVAAISTGGITNYADSVKGRFTISRDNSKNTFYFQMKSLIPEDTAVYYCAADGYSTVSSTYDYWGQGTQVTVSS
  polyreactivity (PSR sort gate): low polyreactivity

## QVQLVESGGGLVQAGGSLRLSCAASGGIFAANAMGWYRPAPGKERELVAAISRSGGRTYYADSVKGRFTISRDNAKNTVYLQMNSLKPEDTAVYYCAATYQASNAWYDYWGQGTQVTVSS
  polyreactivity (PSR sort gate): high polyreactivity

## QVQLVESGGGLVQAGGSLRLSCAASGGIFAPYAMGWYRQAPGKERELVADITSEGGSTYYADSVKGRFTISRDIEKNTVYLQMNSLKPEDTAVYYCAAEQRYCWWGHPGDYWGKGTQVTVSS
  polyreactivity (PSR sort gate): low polyreactivity

## QVQLVESGGGLVQAGGSLRLSCAASGGIFAVYAMGWYRQAPGKERELVAAITWRGGSTRYADSVKGRFTISRDNAKNTVHLQMNSLIPEDTAVYYCAVRSTGYPSRYYYWGQGTQVTVSS
  polyreactivity (PSR sort gate): high polyreactivity

## QVQLVESGGGLVQAGGSLRLSCAASGGIFDRYAMGWYRQAPGKERELVAAITSGGSTNYADSVKGRFTISRDNAKNTVYLQMNSLKPEDTAVYYCNADLGILSGVAEGPTFREYDYWGQGTQVTVSS
  polyreactivity (PSR sort gate): low polyreactivity

## QVQLVESGGGLVQAGGSLRLSCAASGGIFDSYAMGWYRQAPGKERELVADITWSGGSTYYADSVKGSFTISRDNAKNTVYLQMNSLKPEDTAVYLCAAVWNSPYDYWGQGTLVTVSS
  polyreactivity (PSR sort gate): low polyreactivity

## QVQLVESGGGLVQAGGSLRLSCAASGGIFDTNAMGWSRQAPGKERELVAAIRGSGGTYYADSVKGRFTISRDNAKNTVYLQMNSLKPEDTAVYYCATRTYRVLAGSAWYHYNYWGQGTQVTVSS
  polyreactivity (PSR sort gate): high polyreactivity

## QVQLVESGGGLVQAGGSLRLSCAASGGIFDTYAMGWYRQEPGKERELVAAISRRGGNTYYADSVKGRFTISRDNAKNTVYLQMNSLKPEDTAVYYCAAYYHGRMDYWGQGTQVTVSS
  polyreactivity (PSR sort gate): high polyreactivity

## QVQLVESGGGLVQAGGSLRLSCAASGGIFEAYVMGWYRHAPGKERELVAAISFRGGSTYYADSVKGRFTISRDNAKNTVYLQMNSLKPEDTAVYYCAADYRHQGYDYWGQGTQVTVSS
  polyreactivity (PSR sort gate): low polyreactivity

## QVQLVESGGGLVQAGGSLRLSCAASGGIFFLYAMGWYRQAPGKETELVAAIRQDGGSTYYADSVKGRFTISRDNAKNTVYLQMNSLKPEDTAVYYCNAGYVKTGLEYYYWGQGPQVTVSS
  polyreactivity (PSR sort gate): low polyreactivity

## QVQLVESGGGLVQAGGSLRLSCAASGGIFFSYAMGWYRQAPGKERELVAAIRTNGGTTYYADSVKGRFTISRDNAKNTVYLQMNSLKPEDTAVYYCAALPGGYYDRGEYDYWGQGTQVTVSS
  polyreactivity (PSR sort gate): low polyreactivity

## QVQLVESGGGLVQAGGSLRLSCAASGGIFGINAMGWYRQAPGKEREFVAAITASGGTTYYADSVKGRFTISRDNAKNTVYLQMNSLKPEDTAVYYCAKRYRSYDYVWYEYWGQGTQVTVSS
  polyreactivity (PSR sort gate): high polyreactivity

## QVQLVESGGGLVQAGGSLRLSCAASGGIFGRNAMGWYRQAPGKERELVASISKSGGSTYYADSVKGRFTISRDNAKNTVYLQMKSLKPEDSAVYYCAARYSYFNWDNYYWGQGTLVTVSS
  polyreactivity (PSR sort gate): high polyreactivity

## QVQLVESGGGLVQAGGSLRLSCAASGGIFGRYAMGWYRQAPGKERELVAGISYSGGSTYYADSVKGRFTISRDNAKNSVYLQMNSLKPEDTAVYYCATGGYVWYRSVNVWTRMDYWGQGTQVTVSS
  polyreactivity (PSR sort gate): high polyreactivity

## QVQLVESGGGLVQAGGSLRLSCAASGGIFGRYAMGWYRQAPGKERELVAGLSYSGGSTYYADSVKGRFTISRDNEKNTVYLQMTSLKAEDTAVYYCAADTRRTYENYYWGQGTQVTVSS
  polyreactivity (PSR sort gate): high polyreactivity

## QVQLVESGGGLVQAGGSLRLSCAASGGIFGTYTMGWYRQAPGKERELVAAIRSSSGRTYYADSVKGRFTISRDTAKNTVYLQMNSLKPEDTAVYYCNRAYTIQDDYWGQGTQVTVSS
  polyreactivity (PSR sort gate): high polyreactivity

## QVQLVESGGGLVQAGGSLRLSCAASGGIFGVYAMGWYRQAPGKERELVAAISQSDTSTYYADSVKGRFTISRDNAKNTVYLQMNSLKPEDTAVYYCAAEYYLDYYTWFDYWGQGTQVTVSS
  polyreactivity (PSR sort gate): high polyreactivity

## QVQLVESGGGLVQAGGSLRLSCAASGGIFGWYAMGWYRQAPGKERELVAAITGGGSTYYADSVKGRFTISRDNAKNTVYLQMNSLKPEDTAVYYCNADYHTEEDYWGHGTQVTVSS
  polyreactivity (PSR sort gate): low polyreactivity

## QVQLVESGGGLVQAGGSLRLSCAASGGIFGYYAMAWYRQAPGKEREFVAAITLSGGRSYYADSVKGRFTISRDNAKNTVYLQMNSLKPEDTAVYYCNAYPYYLVRNMDSWGQGTQVTVTS
  polyreactivity (PSR sort gate): high polyreactivity

## QVQLVESGGGLVQAGGSLRLSCAASGGIFGYYAMGWYRQAPGKEREFVAAITARGGRTYYADSVKGRFTISRDNAKNTVYLQMNSLKPEDTAVYYCAAYSPVWGRYYHRVERDYWGQGTQVTVSS
  polyreactivity (PSR sort gate): high polyreactivity

## QVQLVESGGGLVQAGGSLRLSCAASGGIFIANAMGWYRQAPGKERELVAAISSSGGSTYYADSVKGRFTISRDNAKNTVYLQMNSLKPEDTAVYYCNKLLTRSYRTYGRYGYWGQGTQVTVSS
  polyreactivity (PSR sort gate): high polyreactivity

## QVQLVESGGGLVQAGGSLRLSCAASGGIFKKYAMGWYRQAPGKERELVAVITSGGRTNYADSVKGRFTISRDNAKNTVYLLMNSLKPEDTAVYYCAAVYVTGSYRYGYWGQGSQVTVSS
  polyreactivity (PSR sort gate): high polyreactivity

## QVQLVESGGGLVQAGGSLRLSCAASGGIFLGNAMAWYRQATGKETELVASITRGGDTSYADSVKARFTFSRDNAKNTVYLQMNSLKPEDTAVYYCNADYYSVVEYDYWGQGTQVTVSS
  polyreactivity (PSR sort gate): low polyreactivity

## QVQLVESGGGLVQAGGSLRLSCAASGGIFLPNAMGWYRQAPGKERELVAAISTGGSTNYADSVKGRFTISRDNAKNTVYLQMNSLKPEDTAVYYCAATPYNYVGFSRGGDYWGQGTQVTVSS
  polyreactivity (PSR sort gate): low polyreactivity

## QVQLVESGGGLVQAGGSLRLSCAASGGIFLYNSMGWYRQAPGKERELVADISSSGITYYADSVKGRFTISRDNAKNTVYLQMNSLNPEDTAVYYCAADSTTRPGLRVYDDYDYWGQGTQVTVSS
  polyreactivity (PSR sort gate): low polyreactivity

## QVQLVESGGGLVQAGGSLRLSCAASGGIFPDYAMGSYRQAPGKERELVAVISDSGGSTYYADSVKGRFTISRDNAKNTVYLQMNSLKPEDTAVYYCAAETEWYYGYYEYWGQGTQVTVSS
  polyreactivity (PSR sort gate): high polyreactivity

## QVQLVESGGGLVQAGGSLRLSCAASGGIFPDYAMGWYRQAPGKERELVAVISDSGGSTYYADSVKGRFTISRDNAKNTVYLQMNSLKPEDTAVYYCSAETEWYYGYYEYWGQGTQVTVSS
  polyreactivity (PSR sort gate): high polyreactivity

## QVQLVESGGGLVQAGGSLRLSCAASGGIFRNYAMGWYRQAPGKERELVARISSAGSTNYADSVKGRFTNSRDNAKNTVYLLMNSLKPEDTAVYYCAKGWRSWAEEGHDYWGQGTQVTVSS
  polyreactivity (PSR sort gate): low polyreactivity

## QVQLVESGGGLVQAGGSLRLSCAASGGIFRPYAMGWYRQAPGKERELVAAITYNGGSTYYADSVKGRFTISRDNAKNTVYLQMNSLKPEDTAVYYCAAVSYSGPYAYEYWGQGTQVTVSS
  polyreactivity (PSR sort gate): high polyreactivity

## QVQLVESGGGLVQAGGSLRLSCAASGGIFRVYAMGWYRQAPGNERELVAAINGRGTSTYYADSVKGRFTISRDNAKNTVYLQMNSLKPEDTAVYYCAASGQYHYDYWGQGTQVTVSS
  polyreactivity (PSR sort gate): high polyreactivity

## QVQLVESGGGLVQAGGSLRLSCAASGGIFRYYAMGWYRQAPAKERELVAAISSGGRTYYADSVKGRFTISRDNAKTTVYLQMNSLKPEDTAVYYCNADRYWGYDYWGQGTQVTVSS
  polyreactivity (PSR sort gate): high polyreactivity

## QVQLVESGGGLVQAGGSLRLSCAASGGIFSKNVMGWYRQAPGKERELVAAISRGGTTSYADSVKGRFTISRDNAKNTVYLQMNSLKPEDTAVYFCAAKYWWYPYFTVDYDYWGQGTQVTVSS
  polyreactivity (PSR sort gate): high polyreactivity

## QVQLVESGGGLVQAGGSLRLSCAASGGIFSVYAMGWYRQAPGKEREFVAAISKSGGRTYYADSVKGRFTISRDNAKNTVYLQMNSLKPEDTAVYYWNVVRRSPGDYSYYYWGQGTQVTVSS
  polyreactivity (PSR sort gate): low polyreactivity

## QVQLVESGGGLVQAGGSLRLSCAASGGIFSYAMGWYRQAPGKERELVAAISSGGSTYYADSVKGRFTISRDNAKNTVYLQMNSLKPEDTAVYYCAADGNGVDYDYWGQGTQVTVSS
  polyreactivity (PSR sort gate): low polyreactivity

## QVQLVESGGGLVQAGGSLRLSCAASGGIFTFNDMGWYRQAPGKERELVAAISRRGGSTYYADSVKGRFTISRDNAKNTVFLQMNSLKPEDTAVYYCAASSRRQRSEPYYYWGQGTQVTVSS
  polyreactivity (PSR sort gate): high polyreactivity

## QVQLVESGGGLVQAGGSLRLSCAASGGIFTKNAMGWYRQAPGKERELVAGISRTGGNTYYADSVKGRFTISRDNAKYTVYLQMNSLIPEDTAVYYCNALYGGPHRLRYDYWGQGTQVTVSS
  polyreactivity (PSR sort gate): low polyreactivity
